According to the RNAGym collection of RNA variant scans (doi:10.7554/elife.80360):

B1: HDV Ribozyme (parent)
chain: GGCCGGCAUGGUCCCAGCCUCCUCGCUGGCGCCGGCUGGGCAACAUUCCGAGGGGACCGUCCCCUCGGUAAUGGCGAAUGGGACCCA

Variants of: B1
Assay: self-cleavage, relative activity (ratio to wild type); higher = more cleavage; co-transcriptional

Variant | self-cleavage
GUCCGGCAUGGUCCCAGCCUCCUCGCUGGCGCCGGGUGGGCAACAUUCCGAGGGGACCGUCCCCUCGGUAAUGGCGAAUGGGACCCA [G2U C36G] | 0.185
GUCCGGCAUGGUCCCAGCCUCCUCGCUGGGGCCGGCUGGGCAACAUUCCGAGGGGACCGUCCCCUCGGUAAUGGCGAAUGGGACCCA [G2U C30G] | 0.0601
GUCCGGCAUGGUCCCAGCCUCCUCGCUGGUGCCGGCUGGGCAACAUUCCGAGGGGACCGUCCCCUCGGUAAUGGCGAAUGGGACCCA [G2U C30U] | 0.025
GUCCGGCAUGGUCCCAGCCUCCUCGCUGGCGCCGGCUGGGCAACAUUCUGAGGGGACCGUCCCCUCGGUAAUGGCGAAUGGGACCCA [G2U C49U] | 0.0821
GUCCGGCAUGGUCCCAGCCUCCUCGCUGGCGCCGGCUGGGCAACAUUCGGAGGGGACCGUCCCCUCGGUAAUGGCGAAUGGGACCCA [G2U C49G] | 0.0329
GUCCGGCAUGGUCCCAGCCUCCUCGCUGGCGCCGGCUGGGCAACAUUGCGAGGGGACCGUCCCCUCGGUAAUGGCGAAUGGGACCCA [G2U C48G] | 0.0615
GUCCGGCAUGGUCCCAGCCUCCUCGCUGGCGCCGGCUGGGCAACAUUUCGAGGGGACCGUCCCCUCGGUAAUGGCGAAUGGGACCCA [G2U C48U] | 0.0563
GUCCGGCAUGGUCCCAGCCUCCUCGCUGGCGACGGCUGGGCAACAUUCCGAGGGGACCGUCCCCUCGGUAAUGGCGAAUGGGACCCA [G2U C32A] | 0.0302
GUCCGGCAUGGUCCCAGCCUCCUCGCUGGCGUCGGCUGGGCAACAUUCCGAGGGGACCGUCCCCUCGGUAAUGGCGAAUGGGACCCA [G2U C32U] | 0.0437
GUCCGGCAUGGUCCCAGCCUCCUCGAUGGCGCCGGCUGGGCAACAUUCCGAGGGGACCGUCCCCUCGGUAAUGGCGAAUGGGACCCA [G2U C26A] | 0.0357
GUCCGGCAUGGUCCCAGCAUCCUCGCUGGCGCCGGCUGGGCAACAUUCCGAGGGGACCGUCCCCUCGGUAAUGGCGAAUGGGACCCA [G2U C19A] | 0.0165
GUCCGGCAUGGUCCCAGCUUCCUCGCUGGCGCCGGCUGGGCAACAUUCCGAGGGGACCGUCCCCUCGGUAAUGGCGAAUGGGACCCA [G2U C19U] | 0.0155
GUCCGGCAUGGUCCCAGCGUCCUCGCUGGCGCCGGCUGGGCAACAUUCCGAGGGGACCGUCCCCUCGGUAAUGGCGAAUGGGACCCA [G2U C19G] | 0
GUCCGGCAUGGUCCCAGGCUCCUCGCUGGCGCCGGCUGGGCAACAUUCCGAGGGGACCGUCCCCUCGGUAAUGGCGAAUGGGACCCA [G2U C18G] | 0.0692
GUCCGGCAUGGUCCCAGCCUCCUCGCUGGCGCCGGCUGGGUAACAUUCCGAGGGGACCGUCCCCUCGGUAAUGGCGAAUGGGACCCA [G2U C41U] | 0.0419
GUCCGGCAUGGUCCCAGCCUCCUCGCUGGCGCCGGCUGGGGAACAUUCCGAGGGGACCGUCCCCUCGGUAAUGGCGAAUGGGACCCA [G2U C41G] | 0.0119

Variant | self-cleavage
GUCCGGCAUGGUCCUAGCCUCCUCGCUGGCGCCGGCUGGGCAACAUUCCGAGGGGACCGUCCCCUCGGUAAUGGCGAAUGGGACCCA [G2U C15U] | 0
GUCCGGCAUGGUCCGAGCCUCCUCGCUGGCGCCGGCUGGGCAACAUUCCGAGGGGACCGUCCCCUCGGUAAUGGCGAAUGGGACCCA [G2U C15G] | 0.0282
GUCCGGCAUGGUCCCAGCCUGCUCGCUGGCGCCGGCUGGGCAACAUUCCGAGGGGACCGUCCCCUCGGUAAUGGCGAAUGGGACCCA [G2U C21G] | 0.0594
GUCCGGCAUGGUCCCAGCCUCCUCGCUGGCGCCGGCUGGGCAACAUUCCGAGGGGAACGUCCCCUCGGUAAUGGCGAAUGGGACCCA [G2U C57A] | 0.156
GUCCGGCAUGGUCCCAGCCUCCUGGCUGGCGCCGGCUGGGCAACAUUCCGAGGGGACCGUCCCCUCGGUAAUGGCGAAUGGGACCCA [G2U C24G] | 0.0225
GUCCGGCAUGGUCCCAGCCUCCUUGCUGGCGCCGGCUGGGCAACAUUCCGAGGGGACCGUCCCCUCGGUAAUGGCGAAUGGGACCCA [G2U C24U] | 0.0784
GUCCGGCAUGGUCCCAGCCUCCUCGCUGGCGCCGGCUGGGCAAGAUUCCGAGGGGACCGUCCCCUCGGUAAUGGCGAAUGGGACCCA [G2U C44G] | 0
GUCCGGCAUGGUCCCAGCCUCAUCGCUGGCGCCGGCUGGGCAACAUUCCGAGGGGACCGUCCCCUCGGUAAUGGCGAAUGGGACCCA [G2U C22A] | 0.035
GUCCGGCAUGGUCCCAGCCUCGUCGCUGGCGCCGGCUGGGCAACAUUCCGAGGGGACCGUCCCCUCGGUAAUGGCGAAUGGGACCCA [G2U C22G] | 0.0193
GUCCGGCAUGGUCCCAGCCUCUUCGCUGGCGCCGGCUGGGCAACAUUCCGAGGGGACCGUCCCCUCGGUAAUGGCGAAUGGGACCCA [G2U C22U] | 0.032
GUCCGGCAUGGUCCCAGCCUCCUCGCUGGCGCCGGCUGGGCAACAUUCCGAGGGGACCGUGCCCUCGGUAAUGGCGAAUGGGACCCA [G2U C61G] | 0.0386
GUCCGGCAUGGUCCCAGCCUCCUCGCUGGCGCCGGCUGGGCAACAUUCCGAGGGGACCGUACCCUCGGUAAUGGCGAAUGGGACCCA [G2U C61A] | 0.0913
GUCCGGCAUGGUGCCAGCCUCCUCGCUGGCGCCGGCUGGGCAACAUUCCGAGGGGACCGUCCCCUCGGUAAUGGCGAAUGGGACCCA [G2U C13G] | 0
GUCCGGCAUGGUACCAGCCUCCUCGCUGGCGCCGGCUGGGCAACAUUCCGAGGGGACCGUCCCCUCGGUAAUGGCGAAUGGGACCCA [G2U C13A] | 0
GUCCGGCAUGGUCCCAGCCUCCUCGCUGGCGCUGGCUGGGCAACAUUCCGAGGGGACCGUCCCCUCGGUAAUGGCGAAUGGGACCCA [G2U C33U] | 0.0422
GUCCGGUAUGGUCCCAGCCUCCUCGCUGGCGCCGGCUGGGCAACAUUCCGAGGGGACCGUCCCCUCGGUAAUGGCGAAUGGGACCCA [G2U C7U] | 0.0264
